Experimental data from publication PMC10311354, “RNA-binding is an ancient trait of the Annexin family” (Frontiers in Cell and Developmental Biology, 2023).

B1: rat Annexin A2 (natural protein, UniProt Q07936 1-339, looked up)
chain: MSTVHEILCKLSLEGDHSTPPSAYGSVKPYTNFDAERDALNIETAIKTKGVDEVTIVNILTNRSNAQRQDIAFAYQRRTKKELPSAMKSALSGHLETVMLGLLKTPAQYDASELKASMKGLGTDEDSLIEIICSRTNQELQEINRVYKEMYKTDLEKDIISDTSGEFRKLLVALAKGKRAEDGSVIDYELIDQDARELYDAGVKRKGTDVPKWISIMTERSVCHLQKVFERYKSYSPYDMLESIRKEVKGDLENAFLNLVQCIQNKPLYFADRLYDSMKGKGTRDKVLIRIMVSRSEVDMLKIRSEFKRKYGKSLYYFIQQDTKGDYQKALLYLCGGDD
notes: The forward primer puts ATGGGT before the natural start codon, so Met-Gly may precede the natural Met; also called AnxA2; source: E. coli BL21 (DE3), purified (Ni2+-NTA, size exclusion chromatography)
B2: rat Annexin A1 (natural protein, UniProt P07150 1-346, looked up)
chain: MAMVSEFLKQACYIEKQEQEYVQAVKSYKGGPGSAVSPYPSFNPSSDVAALHKAIMVKGVDEATIIDILTKRTNAQRQQIKAAYLQETGKPLDETLKKALTGHLEEVVLAMLKTPAQFDADELRAAMKGLGTDEDTLIEILTTRSNQQIREITRVYREELKRDLAKDITSDTSGDFRNALLALAKGDRCEDMSVNQDLADTDARALYEAGERRKGTDVNVFNTILTTRSYPHLRKVFQNYRKYSQHDMNKALDLELKGDIEKCLTTIVKCATSTPAFFAEKLYEAMKGAGTRHKTLIRIMVSRSEIDMNEIKVFYQKKYGIPLCQAILDETKGDYEKILVALCGGN
notes: Annexin A1, rat, isoform X1, 346 aa, cDNA by RT-PCR from PC12 cells; The forward primer puts ATGGGT before the natural start codon, so Met-Gly may precede the natural Met; also called AnxA1; source: E. coli BL21 (DE3), purified (Ni2+-NTA, size exclusion chromatography)
B3: rat Annexin A3 (natural protein, UniProt P14669 1-324, looked up)
chain: MAASLWVGPRGTINNYPGFNPSVDAEAIRKAIKGIGTDEKTLINILTERSNAQRQLIVKQYQEAYEQALKADLKGDLSGHFEHVMVALITAPAVFDAKQLKKSMRGMGTDEDTLIEILTTRTSRQMKEISQAYYTAYKKNLRDDISSETSGDFRKALLTLADGGRDESLKVDEHLAKKDAQTLYDAGEKKWGTDEDKFTEILCLRSFPQLKLTFDEYRNISQKDIEDSIKGELSGHFEDLLLAVVRCTRNTPAFLAGRLHQALKGAGTDEFTLNRIMVSRSEIDLLDIRREFKKHYGCSLYSAIQSDTSGDYRTVLLKICGGDD
notes: The forward primer puts ATGGGT before the natural start codon, so Met-Gly may precede the natural Met; also called AnxA3; source: E. coli BL21 (DE3), purified (Ni2+-NTA, size exclusion chromatography)
B4: rat Annexin A8 (natural protein, UniProt Q4FZU6 1-327, looked up)
chain: MAWWKAWVEQEGVSVKGSSHFNPDPDAETLYKAMKGIGTNEQAIIDVLTKRSNVQRQQIAKSFKAQFGKDLTETLKSELSGKFERLIVALMYPPYRYEAKELHDAMKGLGTKEGVIIEILASRTKNQLREIMKAYEEDYGSTLEEDIQGDTSGYLERILVCLLQGCRDDVSGFVDPGLALQDAQDLHAAGEKILGTDEMKFITILCTRSATHLMRVFEEYEKIANKSIEDSIKSETHGSLEEAMLTVVKCTRNVHSYFAERLYYAMKGAGTLDGTLIRNIVSRSEIDLNLIKSQFQKMYGKTLSSMIMGDTSGYYKTALLNLVGTDL
notes: Annexin A8, rat, 327 aa, cDNA from total RNA of rat lung; The forward primer puts ATGGGT before the natural start codon, so Met-Gly may precede the natural Met; also called AnxA8; source: E. coli BL21 (DE3), purified (Ni2+-NTA, size exclusion chromatography)

How the values were obtained:
[1] = test system: Δ188AnxA11 (Rattus norvegicus); experiment: BLI; conditions: RNA-binding buffer: 10 mM triethanolamine pH 7.4, 50 mM KCl, 1 mM DTT, 2 mM MgSO4, 100 uM CaCl2; spot blot at RT, blocked with 1 mg/mL tRNA; BLI temperature …
[2] = test system: AnxA13 (Rattus norvegicus); experiment: BLI; conditions: RNA-binding buffer: 10 mM triethanolamine pH 7.4, 50 mM KCl, 1 mM DTT, 2 mM MgSO4, 100 uM CaCl2; spot blot at RT, blocked with 1 mg/mL tRNA; BLI temperature …
[3] = test system: Δ142AnxA7 (Rattus norvegicus); experiment: BLI; conditions: RNA-binding buffer: 10 mM triethanolamine pH 7.4, 50 mM KCl, 1 mM DTT, 2 mM MgSO4, 100 uM CaCl2; spot blot at RT, blocked with 1 mg/mL tRNA; BLI temperature …
[4] = test system: AnxA2 (Rattus norvegicus); experiment: BLI; conditions: RNA-binding buffer: 10 mM triethanolamine pH 7.4, 50 mM KCl, 1 mM DTT, 2 mM MgSO4, 100 uM CaCl2; spot blot at RT, blocked with 1 mg/mL tRNA; BLI temperature …
[5] = target: the molecule itself; experiment: SDS-PAGE (Coomassie Brilliant Blue staining); purified recombinant rat Anxs on 4%-15% SDS-PAGE, denaturation buffer with beta-mercaptoethanol; dimeric forms seen as faint bands beside the monomer; nature of the dimers not known (disulfide or tight noncovalent)

| Molecule | Kd [1] | Kd [2] | Kd [3] | Kd [4] | binding result [5] |
| --- | --- | --- | --- | --- | --- |
| c-myc 3'UTR | 124 nM | 130 nM | 126 nM | 73.9 nM |  |
| c-myc 5'UTR |  |  |  | 37.2 nM |  |
| anxA2 3'UTR | > 500 nM | 246 nM | 174 nM | 192 nM |  |
| B1 |  |  |  |  | binds |
| B2 |  |  |  |  | binds |
| B3 |  |  |  |  | binds |
| B4 |  |  |  |  | binds |
